Here are results for 49 molecules from patent US7074888B1, “Mimotopes and anti-mimotopes of human platelet glycoprotein Ib/IX” (The Research Foundation of State University of New York, priority 1995, dated 2006).

Ends that are not written are not given here.

For the first test, the system named is formalin-fixed platelets.
Experiment: not given
It counts as cell-based, human.
Settings: not given
As to the method: (§1) Citrated human platelet-rich plasma (PRP) was prepared by standard methods (Miller et al. 1983). For study of C-34 neutralization by mimotope peptide, 350 μL of PRP containing 150,000 platelets/μL was incubated for 10 min at 22° C. with phosphate-buffered saline (PBS), 20 μg/mL C-34 mab, or 20 μg/mL C-34 that had previously been incubated for 30 min at 22° C. with varying concentrations of peptides. The PRP was then brought to 37° C. and stirred at 1200 rpm in a Chrono-Log lumi-aggregometer (Chrono-Log Corporation, Havertown, Pa.). Aggregation was initiated by the addition of 1 mg/mL ristocetin (Helena Laboratories, Beaumont, Tex.). For screening of bacteriophage clones displaying potential anti-mimotope peptides, 150 μl of PEG/NaCl precipitated phage was incubated with 250 μl of citrated PRP for one hour at 22° C., transferred to the aggregometer, following which ristocetin was added at a final concentration of 0.8 mg/ml.
Further studies were undertaken with chemically synthesized peptide having SEQ ID NO:94: […]. This decapeptide was able to inhibit ristocetin-induced aggregation fully, with an IC50 occurring between 200–400 μg/mL (FIG. 9). […] In order to approximate more closely the native structure, peptides with an (Arg→Lys) substitution at position 7 were then studied. […] Whereas the […] Finally, both the wild-type GPIb alpha 228–237 peptide (SEQ ID NO:108) containing Gly at residue 233 and the PT-vWD variant with Val replacing Gly at this position (SEQ ID NO:107) were synthesized. […] Lyophilized peptides were reconstituted in PBS, pH 6.0 and 150 μL of varying dilutions incubated for 2–4 hr at 22° C. with 250 μL of formalin-fixed platelets ([…]), prior to aggregometry in which the addition of 1 U/mL purified vWF was followed by the addition of 0.9 mg/mL ristocetin.
For the molecule YVWKQVVDVK [SEQ ID NO:107], the “IC50 for inhibition of ristocetin-induced aggregation” value was “approximately 400 μg/mL”.

The same test, now with this note: by 715 μg/mL peptide, formalin-fixed platelets.
With “SEQ ID NO:104: RHVAWWRQGV decapeptide with a (Gly→Val) substitution at position 9, corresponding to the mutation observed in PT-vWD (RHVAWWRQVV)”, the “inhibition of ristocetin-induced aggregation” value is listed as “nearly full inhibition”.

The test is the same for the next values; noted with them: formalin-fixed platelets, 1 U/mL purified vWF, 0.9 mg/mL ristocetin.
Take YVWKQVVDVK [SEQ ID NO:107]: the “inhibition of ristocetin-induced aggregation (extent, in words)” value (“inhibition … (extent, in words)” for short) is listed as “fully inhibiting”. Turning to “SEQ ID NO:108: wild-type GPIb alpha 228–237 peptide containing Gly at residue 233 (YVWKQGVDVK)”, the “inhibition … (extent, in words)” value is on record as “virtually without inhibitory activity”.

As to RHVAWWKQGV [SEQ ID NO:106], the “inhibition … (extent, in words)” value was “unable to exert more than slight inhibition, except at the highest concentrations tested”. Consider RHVAWWKQVV [SEQ ID NO:105], for which the “inhibition … (extent, in words)” value is “retained potent inhibitory activity”.

Another test deals with mab C-34. Nature of the test: Neutralization of mab C-34 inhibition of ristocetin-induced aggregation in citrated platelet-rich plasma by mimotope peptide. It counts as cell-based, human. The following applies: 20 μg/mL C-34, citrated PRP, 1 mg/mL ristocetin; read-out: half-maximal neutralization of the C-34. As to the method: as §1
A peptide including the consensus sequence (SEQ ID NO: 38) was chemically synthesized (Genosys Biotechnologies, The Woodlands, Tex.). […] A modification of this peptide with a biotin attached to the amino-terminal alanine (N-hydroxysuccinimide hexanoic acid long chain spacer arm biotinylation) was also synthesized. One mg of the chemically synthesized biotinylated peptide was dissolved in one ml of water containing 20 μl of DMSO. […] Accordingly, approximately 10 μg of C-34 was incubated at 22° C. for 30 minutes with varying concentrations of test or control peptide, following which the mixture was added to PRP in a final volume of approximately 0.5 ml for an additional 10 minutes at 22° C. […] A similar pattern of C-34 antibody neutralization was observed when the non-biotinylated form of the peptide (having SEQ ID NO:38) was used, with half-maximal neutralization at approximately 3.0 μM.
With WNWRYREYV [SEQ ID NO:38], the EC50 was roughly 3000 nM.

In the next test the target is monoclonal antibody C-34. Nature of the test: clone count after phage biopanning on biotinylated C-34.
Settings: not given
On to KKGRHHVTRV [C34 Clone SEQ ID NO:15], for which the Frequency was found to be 22. The molecule GRRVWMLNHG [C34 Clone SEQ ID NO:14] displayed a Frequency of 2. The same measure, in the same setting: the value for YLGWRYSEYV [C34 Clone SEQ ID NO:4] was 7; that for KRAWWKQKWV [C34 Clone SEQ ID NO:66] was 1; that for MNWKHWRARH [C34 Clone SEQ ID NO:10] was 1. Turning to WRQREYWDPV [C34 Clone SEQ ID NO:6], the Frequency worked out at 1.

On to KWNWRNKKYV [C34 Clone SEQ ID NO:2], for which the Frequency was determined as 1. In turn, PDRQVRLWVR [C34 Clone SEQ ID NO:12] yielded a Frequency of 1.

In turn, LSTWRYFEYV [C34 Clone SEQ ID NO:3] showed a Frequency of 14.

The molecule MSKKPHLGLR [C34 Clone SEQ ID NO:19] had a Frequency of 1.

For the molecule FVDPGRAGRG [C34 Clone SEQ ID NO:21], the Frequency turned out to be 1. As for RVLRHWHPRT [C34 Clone SEQ ID NO:13], the Frequency was determined as 1. GYHWWRNWEY [C34 Clone SEQ ID NO:8] showed a Frequency of 2. The molecule GGVCKCWQCL [C34 Clone SEQ ID NO:16] came in with a Frequency of 1. On to KGFLWRARNW [C34 Clone SEQ ID NO:9], for which the Frequency turned out to be 1. In the case of EGSWRYRKGG [C34 Clone SEQ ID NO:7], the Frequency amounted to 1. For MHGHRRPGLA [C34 Clone SEQ ID NO:18], the Frequency was 1.

Turning to TQMWRAREYL [C34 Clone SEQ ID NO:5], the Frequency is 2. On the same count and under the same terms, the result for FKWREWRGKL [C34 Clone SEQ ID NO:11] reads 1; that for AWNWRYREYV [C34 Clone SEQ ID NO:1], 52.

As to TMWVELYSLK [C34 Clone SEQ ID NO:20], the Frequency amounted to 1. FSHSYGSAIR [C34 Clone SEQ ID NO:17]: the Frequency was 1.

For another test, the target named is T1, synthetic biotinylated peptide mimotope having SEQ ID NO:1 (not fully specified (N-terminus)).
T1 construct: chemically synthesized (Genosys); also called biotinylated mimotope peptide
T1 peptide: AWNWRYREYV
Put plainly: phage biopanning on biotinylated mimotope peptide SEQ ID NO:1.
Settings: not given
The method, then:
For studies directed towards discovering a peptide binding the mimotope peptide (SEQ ID NO:1: […]), two rounds of biopanning against the original decapeptide library were performed, using 1 µg of biotinylated mimotope peptide in the first round and 0.01 µg in the second round. Resulting yields were 3 ×10^-6% and 2 ×10^-3%, respectively.
Turning to LSCRGCRAFV [anti-mimotope clone SEQ ID NO:166], the binding result was “binds”. Still for that read-out and setting: the result for HEGCEAQDEL [anti-mimotope clone SEQ ID NO:167] reads “binds”; that for KKVWMFSYNE [anti-mimotope clone SEQ ID NO:165], “binds”; that for RHRHRGFQPR [anti-mimotope clone SEQ ID NO:161], “binds”. On to WRWMHWMPHA [anti-mimotope clone SEQ ID NO:159], for which the binding result is on record as “binds”. For RGWRWHKYWQ [anti-mimotope clone SEQ ID NO:162], the binding result is “binds”. For VAKWRHWNRQ [anti-mimotope clone SEQ ID NO:99], the binding result is “binds”. The same measure, in the same setting: the result for GTWDLWRKGS [anti-mimotope clone SEQ ID NO:169] reads “binds”; that for WVRGHHREVR [anti-mimotope clone SEQ ID NO:172], “binds”.

For RHVAWWRQGV [anti-mimotope clone SEQ ID NO:94], the binding result is recorded as “binds”.

As for WHWLARHRTV [anti-mimotope clone SEQ ID NO:160], the binding result was “binds”.

KKWGQHRQRS [anti-mimotope clone SEQ ID NO:158]: the binding result was “binds”.

As for LLLVGGSELT [anti-mimotope clone SEQ ID NO:164], the binding result is reported as “binds”. With KHFMRHRHGV [anti-mimotope clone SEQ ID NO:96], the binding result was “binds”. For the molecule RWLWPRVHKT [anti-mimotope clone SEQ ID NO:170], the binding result is reported as “binds”. Consider AKHRWWRRPV [anti-mimotope clone SEQ ID NO:95], for which the binding result is “binds”. For HSPFRHVQPR [anti-mimotope clone SEQ ID NO:171], the binding result is given as “binds”. On the same count and under the same terms, the result for RRSTWHWWHA [anti-mimotope clone SEQ ID NO:98] reads “binds”.

SVRHIWFHVK [anti-mimotope clone SEQ ID NO:168]: the binding result is “binds”.

Regarding KRHAWMKSRL [anti-mimotope clone SEQ ID NO:163], the binding result is reported as “binds”. AGLNHWWKHK [anti-mimotope clone SEQ ID NO:97]: the binding result is “binds”.
